Target: human dynein complex, wild type (tagged IC2C with the dynein subunits of 293 cells) (told two ways: 'Rat IC2C' (methods), human (results, legend) | human (endogenous in Flp-In T-REx 293 cells)) (UniProt Q14204)
Experiment: TIRF microscopy microtubule recruitment assay; mammalian proteins; dynein or DDB on biotin-microtubules, SRP90 assay buffer with 2 mM AMP-PNP, 10 min; apparent affinity

## human dynactin p150-CC1 (residues 224-554) (from UniProt Q14203-1 224-554) (domain or fragment)
  fold greater apparent affinity than Ndel1: 6 fold

— publication PMC10511499
